# Patent US20180362628A1 (KYMAB, published 2018)
# No end group written: not given here. *: point of attachment. Biotin = O=C1N[C@H]2[C@H](CS[C@H]2CCCCC(=O)*)N1
# T1: Peptide #3 (Biotin-SGSGHKKLKQPGDGNPDPNANPN) (N-terminal biotin)
# T1 construct: also called Peptide #3 44288
# T1 peptide: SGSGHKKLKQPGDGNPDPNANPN
# T2: Peptide #4 (Biotin-SGSGNPDPNANP)
# T2 construct: also called Peptide #4 44285
# T2 peptide: Biotin-SGSGNPDPNANP
# T3: Peptide #5 (Biotin-SGSGDGNPDPNANPNV), original sequence of the alanine scan
# T3 construct: also called Peptide #5 44289
# T3 peptide: Biotin-SGSGDGNPDPNANPNV
# T4: Peptide #6 (Biotin-SGSGAGNPDPNANPNV)
# T4 construct: alanine scan variant; also called Peptide #6 44290
# T4 peptide: Biotin-SGSGAGNPDPNANPNV
# T5: Peptide #7 (Biotin-SGSGDANPDPNANPNV)
# T5 construct: alanine scan variant; also called Peptide #7 44291
# T5 peptide: Biotin-SGSGDANPDPNANPNV
# T6: Peptide #8 (Biotin-SGSGDGAPDPNANPNV)
# T6 construct: alanine scan variant; also called Peptide #8 44292
# T6 peptide: Biotin-SGSGDGAPDPNANPNV
# T7: Peptide #9 (Biotin-SGSGDGNADPNANPNV)
# T7 construct: alanine scan variant; also called Peptide #9 44293
# T7 peptide: Biotin-SGSGDGNADPNANPNV
# T8: Peptide #10 (Biotin-SGSGDGNPAPNANPNV)
# T8 construct: alanine scan variant; also called Peptide #10 44294
# T8 peptide: Biotin-SGSGDGNPAPNANPNV
# T9: Peptide #11 (Biotin-SGSGDGNPDANANPNV)
# T9 construct: alanine scan variant; also called Peptide #11 44295
# T9 peptide: Biotin-SGSGDGNPDANANPNV
# T10: Peptide #12 (Biotin-SGSGDGNPDPAANPNV)
# T10 construct: alanine scan variant; also called Peptide #12 44296
# T10 peptide: Biotin-SGSGDGNPDPAANPNV
# T11: Peptide #14 (Biotin-SGSGDGNPDPNAAPNV)
# T11 construct: alanine scan variant; also called Peptide #14 44298
# T11 peptide: Biotin-SGSGDGNPDPNAAPNV
# T12: Peptide #15 (Biotin-SGSGDGNPDPNANANV)
# T12 construct: alanine scan variant; also called Peptide #15 44299
# T12 peptide: Biotin-SGSGDGNPDPNANANV
# T13: Peptide #16 (Biotin-SGSGDGNPDPNANPAV)
# T13 construct: alanine scan variant; also called Peptide #16 44300
# T13 peptide: Biotin-SGSGDGNPDPNANPAV
# T14: Peptide #17 (Biotin-SGSGDGNPDPNANPNA)
# T14 construct: alanine scan variant; also called Peptide #17 44301
# T14 peptide: Biotin-SGSGDGNPDPNANPNA
# T15: Peptide #1 (Biotin-SGSGKPKHKKLKQPGDGNPDPNANP) (N-terminal biotin)
# T15 construct: also called Peptide #1 44286
# T15 peptide: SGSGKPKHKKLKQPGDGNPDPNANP
# Tests used:
# [1] = molecular target: Recombinant CSP (Wellcome Trust Sanger Institute, FIG. 22), CSP ectodomain with BirA biotinylation tag, biolinker and histidine tag (Plasmodium falciparum strain 3D7) (UniProt Q7K740); test: SPR, 2A10 on anti-mouse capture surface, CSP as analyte, 25 C, 1:1 fit
# [2] = molecular target: T1, Peptide #3 …; test: BLI, biotin-peptide on streptavidin sensor, IgG1 in solution, 25 C;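 on Response (nm): antibody solution at 30 µg/mL during association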
# [3] = molecular target: T2, Peptide #4 (Biotin-SGSGNPDPNANP); test: as above
# [4] = molecular target: T3, Peptide #5 (Biotin-SGSGDGNPDPNANPNV), …; test: as above
# [5] = molecular target: T4, Peptide #6 (Biotin-SGSGAGNPDPNANPNV); test: as above
# [6] = molecular target: T5, Peptide #7 (Biotin-SGSGDANPDPNANPNV); test: as above
# [7] = molecular target: T6, Peptide #8 (Biotin-SGSGDGAPDPNANPNV); test: as above
# [8] = molecular target: T7, Peptide #9 (Biotin-SGSGDGNADPNANPNV); test: as above
# [9] = molecular target: T8, Peptide #10 (Biotin-SGSGDGNPAPNANPNV); test: as above
# [10] = molecular target: T9, Peptide #11 (Biotin-SGSGDGNPDANANPNV); test: as above
# [11] = molecular target: T10, Peptide #12 (Biotin-SGSGDGNPDPAANPNV); test: as above
# [12] = molecular target: T11, Peptide #14 (Biotin-SGSGDGNPDPNAAPNV); test: as above
# [13] = molecular target: T12, Peptide #15 (Biotin-SGSGDGNPDPNANANV); test: as above
# [14] = molecular target: T13, Peptide #16 (Biotin-SGSGDGNPDPNANPAV); test: as above
# [15] = molecular target: T14, Peptide #17 (Biotin-SGSGDGNPDPNANPNA); test: as above
# [16] = molecular target: T15, Peptide #1 …; test: as above
# [17] = molecular target: T16, Recombinant CSP (Wellcome Trust Sanger Institute, FIG. 22), CSP ectodomain with BirA biotinylation tag, … (Plasmodium falciparum strain 3D7, UniProt Q7K740 19-376, biotinylated at the BirA substrate peptide); test: SPR, IgG1 captured, CSP as analyte, 40 C; apparent affinity (avidity)
# T16 construct: extracellular domain; Expressed in HEK293, 45 kDa; order of the tags is that of the legend, not confirmed; also called biotinylated recombinant CSP
# [18] = molecular target: T17, full CSP protein (analyte of Example 12) (Plasmodium falciparum (isolate 3D7), UniProt Q7K740 19-374); test: SPR, IgG1 from supernatant on anti-human IgG surface, CSP as analyte, 25 C, 1:1 fit
# T17 construct: not shown: C-terminal tags
# [19] = molecular target: T16, Recombinant CSP (Wellcome Trust Sanger …); test: SPR (ProteOn), biotinylated CSP on NLC chip, Fab as analyte, 25 C, 1:1 fit
molecule,measurement,setting,value
Mouse monoclonal antibody 2A10 (IgG2aK),Kd,[1],0.04 nM
same,koff,[1],9.41e-05 s⁻¹
same,kon,[1],2.23e+06 M⁻¹ s⁻¹
"Antibody 669, human IgG1 (antibody, V domains shown, human IgG1; HEK (Expi293F) product; also called AB-000669; Ab669) VH: QVQLVQSGAEVKKPGASVRVSCKASGFTFTSYAMHWVRQAPGQRLEWMGWINAGNGHTKYSQKFQDRVAITRDTSATTVYMDLSSLRSEDTAVYYCTRDGFCTSTTCSDHYGMDVWGQGTTVTVSS VL: QSALTQPASVSGSPGQSITISCTGTSSDVGSYNYVSWYQQHPGKAPKFMIYDVSKRPSGVSNRFSGSKSGNTASLTISGLQAEDEADYYCCSYAGSSTWVFGGGTKLTVL",Response (nm),[2],5.06 nm
same,Response (nm),[3],5.27 nm
same,Response (nm),[4],3.76 nm
same,Response (nm),[5],3.82 nm
same,Response (nm),[6],3.86 nm
same,Response (nm),[7],3.79 nm
same,Response (nm),[8],3.68 nm
same,Response (nm),[9],4.48 nm
same,Response (nm),[10],2.18 nm
same,Response (nm),[11],2.81 nm
same,Response (nm),[12],0.0239 nm
same,binding result,[12],no binding (tested: LOD 0.125 nm)
same,Response (nm),[13],2.82 nm
same,Response (nm),[14],3.66 nm
same,Response (nm),[15],3.85 nm
same,Response (nm),[16],5.83 nm
same,Kd,[17],0.47 nM
same,koff,[17],0.000125 s⁻¹
same,kon,[17],265000 M⁻¹ s⁻¹
"CL-141786 (antibody, V domains shown, human IgG1, HEK (Expi293F) culture supernatant) VH: QVQLLQSGAEVKKPGASVKVSCKASGYTFTNYAMHWLRQAPGQRLEWMGWINAGNGYTKYSQKFQGRVTITRDTSATTAYMDLSSLRSEDTAVYYCARDNYYDSNVYNSYYFYGMDVWGQGTTVTVSS VL: QSVLTQPASVSGPPGQSITISCTGTSSDVGNYNHVSWYQQHPDKAPKLMIYDVNKRPSGISNRFSGSKSGNTASLTISGLQAEDEADYYCCSYAGSSTWVFGGGTKLTVL",kon,[18],457000 M⁻¹ s⁻¹
"Antibody 668 Fab (Fab, V domains shown, recombinant human Fab from CHO-3E7 cells, purified on nickel columns) VH: QVQLVQSGAEVKKPGASVKVSCKASGFTFTDYAMHWVRQAPGQRLEWMGWINAGNGYTKYSQKFQDRLTITRDTFASTVYMELSSLRSEDTTVYYCARDGFCPSNTCSGYYGMDVWGQGTTVTVSS VL: QSALTQPASVSGSPGQSITISCTGTSSDVGSYNYVSWYQQHPGKAPKLMIYDVNTRPSGVSIRFSASKSGNTASLTVSGLQAEDEAVYYCSSYAGSSTWVFGGGTKLTVL",Kd,[19],12.5 nM
same,koff,[19],0.000473 s⁻¹
same,kon,[19],37900 M⁻¹ s⁻¹
"CL-141790 (antibody, V domains shown, human IgG1, HEK (Expi293F) culture supernatant) VH: QVQLVQSGAEVKRPGASVKISCKASGYTFTNYAIHWVRQAPGQRLEWMGWINAGNGYTKYSQKFQGRVTITRDTSATSAYLELYSLISEDTAVYYCVRDEYYDSGSSNYYYYGMDVWGQGTTVTVSS VL: QSALTQPASVSGSPGQSITISCTGTSSDVGNYNHVSWYQQHPDKAPKLMIYDVSKRPSGVSNRFSGSKSGNTASLTISGLQAEDEADYYCCSYAGSSTWVFGGGTKLTVL",kon,[18],428000 M⁻¹ s⁻¹
"Antibody 667 Fab (Fab, V domains shown, recombinant human Fab from CHO-3E7 cells, purified on nickel columns) VH: QVQLVQSGAEVKKPGASVKVSCRASGYTFTNYAMHWVRQAPGQRLEWMGWINAGNGYTKYSQKFQDRVTITRDTSATTAYMELSSLRSEDTAMYYCARDSFYDILSGPVYHYYGMDVWGQGTTVTVSS VL: QSALTQPDSVSGSPGQSITISCTGTSNDVGIYNHVSWYQQHPGKAPKLMIYDVNKRPSGISNRFSGSKSGDTASLTISGLQAEDEADYYCCSYAGSSAWVFGGGTKLTVL",Kd,[19],31.6 nM
same,koff,[19],0.00079 s⁻¹
same,kon,[19],25000 M⁻¹ s⁻¹
"CL-141784 (antibody, V domains shown, human IgG1, HEK (Expi293F) culture supernatant) VH: QVQLVQSGAEVKNPGASLKVSCKASGYTFTNYAMHWVRQAPGQRLEWMGWINAGNGYTKYSQTFQGRVTITRDTYASTAYMELSSLRSEDTAVYYCVRDEYYESGSSNYYYYGMDVWGQGTTVTVSS VL: QSALTQPASVSGSPGQSITISCTGTSSDVGSYNHVSWYQQHPGKAPKLMIYDVSTRPSGVSNRFSGSKSGNTASLTISGLQAEDEADYYCCSYAGSSTWVFGGGTKMTVL",kon,[18],541000 M⁻¹ s⁻¹
"Antibody 669 Fab (Fab, V domains shown, recombinant human Fab from CHO-3E7 cells, purified on nickel columns) VH: QVQLVQSGAEVKKPGASVRVSCKASGFTFTSYAMHWVRQAPGQRLEWMGWINAGNGHTKYSQKFQDRVAITRDTSATTVYMDLSSLRSEDTAVYYCTRDGFCTSTTCSDHYGMDVWGQGTTVTVSS VL: QSALTQPASVSGSPGQSITISCTGTSSDVGSYNYVSWYQQHPGKAPKFMIYDVSKRPSGVSNRFSGSKSGNTASLTISGLQAEDEADYYCCSYAGSSTWVFGGGTKLTVL",Kd,[19],126 nM
same,koff,[19],0.00211 s⁻¹
same,kon,[19],16800 M⁻¹ s⁻¹
"Antibody 666 Fab (Fab, V domains shown, recombinant human Fab from CHO-3E7 cells, purified on nickel columns) VH: QVQLVQSGAEVKKPGASVKVSCKASGYTFTNYAMHWVRQAPGQRLEWMGWINAGNGNTKYSQNFQGRVTITRDTSASTAYMELSSLRSEDTAVYYCARDEYYASGSYYDYYYYGMDVWGQGTTVTVTS VL: QSALTQPASVSGSPGQSITISCTGTSSDVGVYNYVSWFQQHPGKAPKLMIYNVSKRPSGVSNRFSGSKSGNTASLTISGLQAEDEADYYCCSYAGSSTWVFGGGTNLTVL",Kd,[19],52 nM
same,koff,[19],0.00249 s⁻¹
same,kon,[19],48000 M⁻¹ s⁻¹
